Among the data in the supplement of paper PMC12042874 are amyloid nucleation score values, retold here.

± gives the uncertainty stated by the source.

The data set is described as follows: amyloid nucleation score (Sup35N fusion, yeast selection) (log enrichment); library NNK2; higher = more nucleation; inactive = no reads after selection. Put shortly:
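Nucleation score is defined as the DiMSum log enrichment of output over input reads, with centring on the mode score of non-aggregating sequences. A minimum of 100 input reads was required for each sequence. Reads came from Illumina sequencing of plasmid inserts from psi-negative yeast expressing Sup35N fused to peptides of 20 random codons, induced with 100 μM copper sulfate for 24 hours and grown 7 days at 30°C on medium lacking adenine and uracil.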
RTGRPSHDFRYGKQRFMVRP showed an amyloid nucleation score of 0.736 ± 0.74. For RTIVCF the value was -0.699 ± 1; for RTLFSRFYRRSMFNLSVKKK, “inactive”; for RTLLSSCKIATSLWHMCYPQ, -0.381 ± 1.1.

RTLYSGWVGHVSKEARNLFK displayed an amyloid nucleation score of 6.12 ± 0.054. For RTVIQQVPAPLARAGVRWGW the value was 3.17 ± 0.097; for RTVLATYMTPRSTPKSDYPR, -0.734 ± 0.48. The same measure for RTVLFAGCAVSNEMFCEKLV: 3.68 ± 0.077; for RTVLGGWMANWASHNILVQC: 0.316 ± 0.39.

Consider RTYSMGGIR, for which the amyloid nucleation score is -0.849 ± 1.1.

On to RVDGDYSSARRGGLISKWAF, for which the amyloid nucleation score is 0.804 ± 0.5. Consider RVEEWASFTTVIIMRMLNPG, for which the amyloid nucleation score is 0.94 ± 0.6. For RVFFTVCGMHTGSSKKLAGL the value was 1.23 ± 0.21; for RVFMEH, -0.047 ± 1.1. The same measure for RVFRCYRIIYMVMI: 0.204 ± 0.19; for RVGDEFVGCRWVSRIANSHS: 2.23 ± 0.14. In turn, RVGFNNRNVVD yielded an amyloid nucleation score of 0.266 ± 0.56. RVGQSIYMPPLRNGRAGVKW returned an amyloid nucleation score of 1.21 ± 0.27. Substance RVGRSSKLWGFREYTSRKFG showed an amyloid nucleation score of 0.28 ± 0.77.

RVKEMWGVYVGQHGYTANAL: the amyloid nucleation score was 0.842 ± 0.47.

For RVQDRYILNSVRQHHGAGQR, the amyloid nucleation score is -0.14 ± 1.1.

Substance RVQVQLLISVYFFLYLPHSI came in with an amyloid nucleation score of -1.58 ± 0.41. RVSESLPSTD came in with an amyloid nucleation score of -0.219 ± 0.47. For RVSQHGEVPSTCFSK the value was 1.39 ± 0.38; for RVSYDF, 0.43 ± 0.65. The same measure for RVTSEIWGCGGGFREECIKE: 0.143 ± 0.5; for RVVGPFFMVFVLTDMGFWVT: “inactive”; for RVWDNSVLGWQQGFSTVERV: 0.766 ± 0.3. The same measure for RVYMRISFSLSLLIAMSNLI: -0.315 ± 0.64; for RWRIARMITPNLPELLSLYR: 2.93 ± 0.059; for RWTKGCDSNCIWF: -0.502 ± 0.25. In turn, RWVSGQTYVVLSIVR yielded an amyloid nucleation score of 0.242 ± 0.28.

RYALNYTIPEPYWT returned an amyloid nucleation score of -0.576 ± 0.55. The same measure for RYDSMIHRSVGWPGSYNKGH: -0.287 ± 0.31; for RYGFSVSITMIFYRGGFCRW: “inactive”. The same measure for RYGVRSQCYGVTKRLFAITA: 0.951 ± 0.33. The same measure for RYHWEVLK: 0.082 ± 1; for RYRELVGVKCMV: 0.978 ± 0.74.

Turning to RYRLISTTFGVAHSFEPPRL, the amyloid nucleation score worked out at 4.26 ± 0.059. The same measure for RYRVRKCSLANWDEWTTIGC: 1.67 ± 0.19; for RYVNVCYNSSAWGLFGTTHI: “inactive”. For RYVQLIDHWSNGIVKVVGVL the value was 0.783 ± 0.56; for RYVVCNGRNLELLDFMNSRS, -0.74 ± 1.1. The same measure for RYWTSIGCGR: 0.589 ± 0.32; for SACIILI: 1.65 ± 0.15; for SADRECCQHEFGASPRLRVG: 4.907 ± 0.041.

The substance SAFIVNCNLINAQERDFKSD showed an amyloid nucleation score of 6.682 ± 0.034.

As to SAGHSKGLQDVAPPRIFMVS, the amyloid nucleation score result is “inactive”. For SAGVEAREMRTSYLGSSEVG the value was 1.28 ± 0.32. The same measure for SAHLYALGNSRHFIYVPVEL: “inactive”; for SALCNDVVRPMMVFSENCAK: 0.225 ± 0.31; for SALNYSFFLL: -0.27 ± 1.1.

SAMSCPTKSAELRKCSYHPS came in with an amyloid nucleation score of 0.246 ± 0.27. The same measure for SASWGLQSYNSRCGRLTNRF: 0.524 ± 0.81; for SAWVTNIFDNKLCVAVTEFR: 4.04 ± 0.06. For SCCCYMIGKGIPQM the value was 0.394 ± 0.3; for SCCEGISSVNNLFMRRRGIE, 0.201 ± 0.53; for SCDVTHGGLRQSKHGSGESG, 7.7 ± 0.083. As for SCFLNMTLILDLVITGMMPR, the amyloid nucleation score was -0.251 ± 0.32.

The substance SCFSIFMLIPSSATAIFSQI showed an amyloid nucleation score of -1.27 ± 1. For the substance SCGVDCSVSGC, the amyloid nucleation score stood at 0.903 ± 0.57. The same measure for SCIDCLRLSLLSGCIHWVNY: 0.509 ± 0.8. For SCLTDQDERPGLWELSCRYM the value was 1.1 ± 0.34; for SCMSFVLKFPQTLSVWVCWG, 4.97 ± 0.072. For SCNRRSSVVPWWWLTFRRWN the value was -1.16 ± 1.1; for SCRDNIRGQRLGHHAGLWSR, 0.479 ± 0.2; for SCRNCSQSVSLGGSSKPRQV, 0.455 ± 0.4. In turn, SCSISGMVVWDRMVKLSLSL returned an amyloid nucleation score of -0.317 ± 0.48. For SCSVGRNKMWILVLVVVWGE the value was 0.035 ± 0.54; for SCVCVMSYQLNVWRKHDSCI, 4.606 ± 0.035. The same measure for SCVGTN: -0.062 ± 0.55; for SCYRFSRSRS: -0.359 ± 0.49; for SDARPYWIIYMSNQPYGIDS: “inactive”.

Consider SDEIECCKYFFGYL, for which the amyloid nucleation score amounted to 5.347 ± 0.047. As to SDERSGFRTSVRG, the amyloid nucleation score turned out to be 0.479 ± 0.29.

SDEVVVFRRDMSGCHEFVLV displayed an amyloid nucleation score of 1.12 ± 0.27. The substance SDFIPGKMCLNCLWWFVPTR showed an amyloid nucleation score of -0.496 ± 0.36. With SDISNQLMFFGRWAPRVLVD, the amyloid nucleation score was -0.35 ± 1.1. In the case of SDLVLKSLFDVVARRL, the amyloid nucleation score is -0.072 ± 0.35. The same measure for SDPHMHD: 0.521 ± 0.25; for SDTSVRGLLLEVCRWSGWVA: 1.33 ± 0.35. The same measure for SDVRVLNDQKSGVFC: 0.706 ± 0.15. As for SDYVYKFSVAWWVPVSSVVK, the amyloid nucleation score was 0.701 ± 0.38. The same measure for SEGLG: 3.53 ± 0.063; for SEPKEVCLVIGGEEYKGVVS: 0.364 ± 0.37. For SFCKCLVVALVDVWNRCLPW the value was 4.68 ± 0.051. The same measure for SFCVALFSWSVYVTIRVHYR: -0.545 ± 0.79; for SFCYLLSTISVTIALVKTRG: -0.271 ± 0.5; for SFDCKVMVFCAMRYNLRIMS: -1 ± 0.5.

Regarding SFDLAVTECIALCFRCYQVF, the amyloid nucleation score is -1.04 ± 0.39. Take SFDVYVEARLMDSVTGLDRI: the amyloid nucleation score came out at 0.437 ± 0.32. SFDWWASHRTIVY gave an amyloid nucleation score of -0.217 ± 0.42.

Turning to SFEFVACVVMYMCCRTMFIL, the amyloid nucleation score is -0.164 ± 0.24.

Consider SFFMEDQCTRPLVWEVRVFN, for which the amyloid nucleation score amounted to 0.049 ± 1.1.

The substance SFGCINTCFCMCSCFVREMD gave an amyloid nucleation score of 1.5 ± 0.14.

Take SFGHATLYSFH: the amyloid nucleation score was -0.058 ± 0.65.

As for SFHFCWFRYNWCYFGLS, the amyloid nucleation score amounted to 0.058 ± 1.

Regarding SFHLS, the amyloid nucleation score was -0.019 ± 0.6.

SFIHDWTNFHGSLGFDYGCD registered an amyloid nucleation score of 0.112 ± 1.1. For SFIHFPFWFILHNRALTRRV the value was 0.057 ± 1.1. The same measure for SFKVMYKENNTNLGSLLWDG: 0.049 ± 0.21; for SFLFMKSTIRFIEL: -1.34 ± 0.36.

Take SFLRARLCCHMMGHSTLKYH: the amyloid nucleation score was -0.72 ± 1.1. The same measure for SFLSRL: -0.4 ± 0.65; for SFLVSFHPMS: -1.33 ± 0.48; for SFNVSTMRLQIVSVLRKSRR: 0.236 ± 1.1. The same measure for SFNVYRASGVKVRQWAFHGG: 0.076 ± 0.61; for SFSNTAAYAKEYCRSYWVLV: “inactive”; for SFSRYF: -1.58 ± 0.75. The same measure for SFTAHTSIHASNLYTDLLLC: 3.41 ± 0.063. SFTCLLSFKQSCHSFMPCPC came in with an amyloid nucleation score of 1.03 ± 0.32. SFTYASSV yielded an amyloid nucleation score of -1.1 ± 0.28.

SFVCWITVCNFRVSQ gave an amyloid nucleation score of 3.21 ± 0.12. For SFVLIKIMILLCDAVYGH the value was 3.58 ± 0.054. The same measure for SFVTYSNSLFFTISSDSK: 6.826 ± 0.054; for SFVWRWRRSEFHQVMRGGWP: 2.15 ± 0.23; for SFWISVGLWFWLGEYMGRNE: 2.17 ± 0.12. For SGCFVWPELVGESSIIMCPS the value was “inactive”; for SGCTGFCRRGPVRCWGSCLL, “inactive”; for SGCVA, 0.474 ± 0.24.

In the case of SGDFI, the amyloid nucleation score entry is “inactive”. The same measure for SGESSNCWLMIL: “inactive”; for SGFFAVGILITTLPLRGNER: 0.22 ± 0.45; for SGFGCLFTMW: 1.63 ± 0.27. For SGFKLLGFTNYVHAVSMGSQ the value was 3.25 ± 0.15. In the case of SGGLLKRWYRVDLGVVRYLY, the amyloid nucleation score result was “inactive”. For SGIALFKPSCSVGVAQFDYE the value was -0.024 ± 0.45; for SGILVKLVMIFSWKGGGV, 2.96 ± 0.066. For SGIWFQQDMMN the value was -0.258 ± 0.55. The same measure for SGLEQRGMFRRKNLPIKWCL: 3.89 ± 0.041. Consider SGLLVSNKFWGICTNYFGQR, for which the amyloid nucleation score is 6.684 ± 0.045.

The substance SGNHSLVLYDWDYVWYVTQY yielded an amyloid nucleation score of -1.1 ± 0.45. For SGPWTSWLVSLG the value was -0.003 ± 1.1; for SGRHVNVLYYNFNGPDDQFK, 6.866 ± 0.029. As to SGRLL, the amyloid nucleation score came to 1 ± 0.13. For SGRTGIGWYLFCRPYPIVYA the value was 0.277 ± 0.39; for SGRYFRIRRPYEDCQGREVA, 1.22 ± 0.38.

The substance SGSYF gave an amyloid nucleation score of -0.504 ± 0.45.

As to SGTKPLCKQ, the amyloid nucleation score is 1.22 ± 0.34.
